Publication PMC4293345 (Molecular and cellular neurosciences, 2014)
Read-outs that look alike come from different tables or passages of the source.

What was measured:
[1] = biological target: T1, MBP-tagged NCS-1 (neuronal calcium sensor-1) (UniProt P62166 1-190); experiment: pull-down
[2] = biological target: T1, MBP-tagged NCS-1 (neuronal calcium …); experiment: pull-down; remark: listed apart in the source

T1 sequence (P62166 whole entry): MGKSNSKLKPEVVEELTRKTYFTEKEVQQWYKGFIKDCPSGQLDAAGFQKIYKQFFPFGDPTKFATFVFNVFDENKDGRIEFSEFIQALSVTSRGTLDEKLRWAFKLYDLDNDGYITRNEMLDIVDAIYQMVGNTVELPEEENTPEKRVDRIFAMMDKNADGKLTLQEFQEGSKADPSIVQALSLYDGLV

- relative binding (ratio of IQ-GST to NCS-1-MBP) [1]: 0.57 ± 0.06
- relative binding (ratio of IQ-GST to NCS-1-MBP) [2]: 0.56 ± 0.06
B1: GST-tagged IQ-like domain of CaV2.1 (domain or fragment)
chain: LMALIRTALDIKIAKGGADKQQMDAELRKEMMAIWPNLSQKTLDLLVTPHKSTDLTVGKIYAAMMIMEYYRQSKAKKLQAMREEQNRTPLMFQRMEPPSPTQEGGPSQNALPSTQLD
